Source: IntAct's records for PubMed 28712572

These substances were tested against gbrap_human GABARAP (UniProt O95166).
gbrap_human GABARAP, sequence (O95166 whole entry): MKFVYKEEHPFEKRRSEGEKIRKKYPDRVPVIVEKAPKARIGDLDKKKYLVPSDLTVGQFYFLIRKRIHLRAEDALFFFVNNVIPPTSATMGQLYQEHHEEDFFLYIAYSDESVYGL
For “Pericentriolar material 1 protein (Homo sapiens), Q15154 L1973W”, the “effect of a mutation on the interaction” value was “with no effect”. “Pericentriolar material 1 protein (Homo sapiens), Q15154 L1973Y” was tested, and the “effect of a mutation on the interaction” value was “with no effect”. “Pericentriolar material 1 protein (Homo sapiens), Q15154 N1953A” was tested, and the “effect of a mutation on the interaction” value was “with no effect”. For “Pericentriolar material 1 protein (Homo sapiens), Q15154 N1953C”, the “effect of a mutation on the interaction” value was “with no effect”. With “Pericentriolar material 1 protein (Homo sapiens), Q15154 N1953D” the “effect of a mutation on the interaction” value was “with no effect”. With “Pericentriolar material 1 protein (Homo sapiens), Q15154 N1953E” the “effect of a mutation on the interaction” value was “with no effect”. In the case of “Pericentriolar material 1 protein (Homo sapiens), Q15154 N1953F”, the “effect of a mutation on the interaction” value is reported as “with no effect”. For “Pericentriolar material 1 protein (Homo sapiens), Q15154 N1953G”, the “effect of a mutation on the interaction” value was “with no effect”. With “Pericentriolar material 1 protein (Homo sapiens), Q15154 N1953H” the “effect of a mutation on the interaction” value was “with no effect”. With “Pericentriolar material 1 protein (Homo sapiens), Q15154 N1953I” the “effect of a mutation on the interaction” value was “with no effect”. In the case of “Pericentriolar material 1 protein (Homo sapiens), Q15154 N1953K”, the “effect of a mutation on the interaction” value is reported as “with no effect”. For “Pericentriolar material 1 protein (Homo sapiens), Q15154 N1953L”, the “effect of a mutation on the interaction” value was “with no effect”. For “Pericentriolar material 1 protein (Homo sapiens), Q15154 N1953M”, the “effect of a mutation on the interaction” value was “with no effect”. With “Pericentriolar material 1 protein (Homo sapiens), Q15154 N1953P” the “effect of a mutation on the interaction” value was “with no effect”. “Pericentriolar material 1 protein (Homo sapiens), Q15154 N1953Q” was tested, and the “effect of a mutation on the interaction” value was “with no effect”. For “Pericentriolar material 1 protein (Homo sapiens), Q15154 N1953R”, the “effect of a mutation on the interaction” value was “with no effect”. In the case of “Pericentriolar material 1 protein (Homo sapiens), Q15154 N1953S”, the “effect of a mutation on the interaction” value is reported as “with no effect”. In the case of “Pericentriolar material 1 protein (Homo sapiens), Q15154 N1953T”, the “effect of a mutation on the interaction” value is reported as “with no effect”. “Pericentriolar material 1 protein (Homo sapiens), Q15154 N1953V” was tested, and the “effect of a mutation on the interaction” value was “with no effect”. In the case of “Pericentriolar material 1 protein (Homo sapiens), Q15154 N1953W”, the “effect of a mutation on the interaction” value is reported as “with no effect”. In the case of “Pericentriolar material 1 protein (Homo sapiens), Q15154 N1953Y”, the “effect of a mutation on the interaction” value is reported as “with no effect”. “Pericentriolar material 1 protein (Homo sapiens), Q15154 P1970A” was tested, and the “effect of a mutation on the interaction” value was “decreasing interaction strength”. In the case of “Pericentriolar material 1 protein (Homo sapiens), Q15154 P1970C”, the “effect of a mutation on the interaction” value is reported as “with no effect”. In the case of “Pericentriolar material 1 protein (Homo sapiens), Q15154 P1970D”, the “effect of a mutation on the interaction” value is reported as “decreasing interaction strength”. In the case of “Pericentriolar material 1 protein (Homo sapiens), Q15154 P1970E”, the “effect of a mutation on the interaction” value is reported as “decreasing interaction strength”. “Pericentriolar material 1 protein (Homo sapiens), Q15154 P1970F” was tested, and the “effect of a mutation on the interaction” value was “with no effect”. “Pericentriolar material 1 protein (Homo sapiens), Q15154 P1970G” was tested, and the “effect of a mutation on the interaction” value was “decreasing interaction strength”. With “Pericentriolar material 1 protein (Homo sapiens), Q15154 P1970H” the “effect of a mutation on the interaction” value was “with no effect”. With “Pericentriolar material 1 protein (Homo sapiens), Q15154 P1970I” the “effect of a mutation on the interaction” value was “decreasing interaction strength”. In the case of “Pericentriolar material 1 protein (Homo sapiens), Q15154 P1970K”, the “effect of a mutation on the interaction” value is reported as “disrupting interaction strength”. “Pericentriolar material 1 protein (Homo sapiens), Q15154 P1970L” was tested, and the “effect of a mutation on the interaction” value was “decreasing interaction strength”. In the case of “Pericentriolar material 1 protein (Homo sapiens), Q15154 P1970M”, the “effect of a mutation on the interaction” value is reported as “decreasing interaction strength”. “Pericentriolar material 1 protein (Homo sapiens), Q15154 P1970N” was tested, and the “effect of a mutation on the interaction” value was “decreasing interaction strength”. With “Pericentriolar material 1 protein (Homo sapiens), Q15154 P1970Q” the “effect of a mutation on the interaction” value was “decreasing interaction strength”. For “Pericentriolar material 1 protein (Homo sapiens), Q15154 P1970R”, the “effect of a mutation on the interaction” value was “decreasing interaction strength”. With “Pericentriolar material 1 protein (Homo sapiens), Q15154 P1970S” the “effect of a mutation on the interaction” value was “disrupting interaction strength”. In the case of “Pericentriolar material 1 protein (Homo sapiens), Q15154 P1970T”, the “effect of a mutation on the interaction” value is reported as “disrupting interaction strength”. For “Pericentriolar material 1 protein (Homo sapiens), Q15154 P1970V”, the “effect of a mutation on the interaction” value was “disrupting interaction strength”. With “Pericentriolar material 1 protein (Homo sapiens), Q15154 P1970W” the “effect of a mutation on the interaction” value was “with no effect”. With “Pericentriolar material 1 protein (Homo sapiens), Q15154 P1970Y” the “effect of a mutation on the interaction” value was “disrupting interaction strength”. With “Pericentriolar material 1 protein (Homo sapiens), Q15154 Q1956A” the “effect of a mutation on the interaction” value was “with no effect”. “Pericentriolar material 1 protein (Homo sapiens), Q15154 Q1956C” was tested, and the “effect of a mutation on the interaction” value was “with no effect”. “Pericentriolar material 1 protein (Homo sapiens), Q15154 Q1956D” was tested, and the “effect of a mutation on the interaction” value was “with no effect”. “Pericentriolar material 1 protein (Homo sapiens), Q15154 Q1956E” was tested, and the “effect of a mutation on the interaction” value was “with no effect”. “Pericentriolar material 1 protein (Homo sapiens), Q15154 Q1956F” was tested, and the “effect of a mutation on the interaction” value was “with no effect”.
